Measured values reported in patent US20230146072A1 (Pfizer, published 2023).

Target: T1, mouse GUCY2c (mouse, UniProt Q3UWA6 20-1072)
T1 construct: whole, on cells; 300.19 cells over-expressing mouse GUCY2c, formalin-fixed paraffin-embedded cell pellets
T1 sequence (looked up): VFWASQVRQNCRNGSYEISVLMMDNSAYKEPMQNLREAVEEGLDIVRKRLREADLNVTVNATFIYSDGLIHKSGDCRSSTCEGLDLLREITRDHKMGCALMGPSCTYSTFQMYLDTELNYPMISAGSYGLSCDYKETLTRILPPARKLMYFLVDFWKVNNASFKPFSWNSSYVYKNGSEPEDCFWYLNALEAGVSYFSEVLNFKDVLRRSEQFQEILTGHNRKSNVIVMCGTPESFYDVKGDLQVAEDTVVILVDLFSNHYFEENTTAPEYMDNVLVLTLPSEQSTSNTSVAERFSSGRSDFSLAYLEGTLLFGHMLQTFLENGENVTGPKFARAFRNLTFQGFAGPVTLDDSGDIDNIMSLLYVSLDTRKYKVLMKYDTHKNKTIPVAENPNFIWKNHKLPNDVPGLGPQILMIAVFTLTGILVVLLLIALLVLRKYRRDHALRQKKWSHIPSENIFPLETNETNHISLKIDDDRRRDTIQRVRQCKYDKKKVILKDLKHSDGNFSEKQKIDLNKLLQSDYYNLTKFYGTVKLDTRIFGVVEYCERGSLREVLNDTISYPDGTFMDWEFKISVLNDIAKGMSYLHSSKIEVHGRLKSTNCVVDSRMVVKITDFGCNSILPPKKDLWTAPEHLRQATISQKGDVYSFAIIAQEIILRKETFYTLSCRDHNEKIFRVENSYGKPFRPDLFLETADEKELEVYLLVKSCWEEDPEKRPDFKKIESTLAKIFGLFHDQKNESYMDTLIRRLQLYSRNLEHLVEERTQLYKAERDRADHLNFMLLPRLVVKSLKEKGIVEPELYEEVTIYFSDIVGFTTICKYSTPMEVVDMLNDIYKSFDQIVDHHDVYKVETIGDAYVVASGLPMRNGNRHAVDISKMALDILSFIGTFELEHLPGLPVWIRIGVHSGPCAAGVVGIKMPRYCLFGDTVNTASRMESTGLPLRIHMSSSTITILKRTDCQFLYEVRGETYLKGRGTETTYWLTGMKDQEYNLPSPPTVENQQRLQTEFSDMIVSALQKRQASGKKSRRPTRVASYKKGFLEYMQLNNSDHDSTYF
Test: IHC on FFPE pellets of 300.19 cells over-expressing mouse GUCY2c
Procedure: Empty holes were filled with paraffin and the array was allowed to warm at 40 ° C. in an incubator overnight to anneal the donor cores with the recipient block. Five micron sections of the cell microarray were cut, transferred to a water bath and placed on Superfrost Excell microscope slides (Fisher). Slides were allowed to dry overnight. After deparaffinization and rehydration of tissue sections, heat induced epitope retrieval was performed in the Retriever 2100 pressure cooker (Electron Microscopy Sciences) in Borg Decloaker buffer pH 9.5 (Biocare Medical) or pH 6.0 Citrate buffer (Thermo Scientific) followed by cooling to room temperature (RT). Endogenous peroxidase activity was inactivated with Peroxidazed 1 (Biocare Medical) for 10 m. Non-specific protein interactions were blocked for 10 m with Background Punisher (Biocare Medical). Each hybridoma was incubated without dilution for 1 h under both heat induced epitope retrieval conditions. Sections were rinsed in TBS and hybridoma binding was detected with Envision+ Mouse HRP (DAKO) for 30 m. Slides were rinsed in TBS and immunoreactivity was developed with Betazoid DAB Chromogen Kit (Biocare Medical) for 5 m, followed by rinses in distilled water. […] Slides were evaluated by a pathologist to assess immunoreactivity. […]

B1: Anti-GUCY2c antibody Ab288 (antibody, mouse IgG1, kappa, V domains shown)
VH: DVQLQESGPGLVKPSQSLSLTCTVTGYSITSDYAWNWIRQFPGNNLEWMGYISYSGSTRYNPSLKSRISITRDTSKNQFFLQLNSVTSEDTATYYCAREDGYVAMDYWGQGTSVTVSS
VL: DIVLTQSPASLAVSLGQRATISCRASESVEYFGTSFMQWYQQRPGQPPKLLIYAASNVESGVPVRFSGSGSGTDFSLNIHPVEEDDIAMYFCQQSRKVPWTFGGGTNLEIKR
- binding result: no binding (tested: 2 µg/ml and 10 µg/ml)
